{
  "source": "patent US7759315B2",
  "about": "“Treatment of inflammatory conditions of the intestine” (CSL Behring AG, priority 2005, dated 2010)",
  "origin": "cited, not measured here",
  "note": "Non-standard residues stand in square brackets, D forms with d. No end group written: not given here. Aib = CC(C)(N)C(=O)O",
  "data": [
    {"target": "T1, LCAT (Homo sapiens, UniProt P04180)", "T1 sequence (P04180 25-440)": "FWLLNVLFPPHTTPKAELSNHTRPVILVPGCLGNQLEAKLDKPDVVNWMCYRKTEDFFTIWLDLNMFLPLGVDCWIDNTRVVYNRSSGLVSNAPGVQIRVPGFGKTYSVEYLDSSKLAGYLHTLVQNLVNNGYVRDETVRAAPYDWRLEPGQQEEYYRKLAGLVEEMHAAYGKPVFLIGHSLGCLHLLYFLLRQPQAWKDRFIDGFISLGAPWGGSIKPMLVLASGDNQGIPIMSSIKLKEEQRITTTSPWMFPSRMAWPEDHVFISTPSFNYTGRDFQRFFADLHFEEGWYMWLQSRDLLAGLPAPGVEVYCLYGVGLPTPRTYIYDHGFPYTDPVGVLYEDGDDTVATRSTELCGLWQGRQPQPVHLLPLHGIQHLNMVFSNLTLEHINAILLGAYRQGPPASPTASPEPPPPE", "units": {"ACTIVITY (%) LCAT": "%"}, "values": [
      {"substance": "PVLDEFRWKLNEXLEALKQKLK (PVLDEFRWKLNE[Aib]LEALKQKLK; not fully specified (C-terminus)) [Peptide 61]", "ACTIVITY (%) LCAT": 16},
      {"substance": "XVLDLFRELLNELLEALKQKLK ([Aib]VLDLFRELLNELLEALKQKLK; not fully specified (C-terminus)) [Peptide 32]", "ACTIVITY (%) LCAT": 33},
      {"substance": "PVLDLFRELLNELLEGLKQKLK [Peptide 22]", "ACTIVITY (%) LCAT": 54},
      {"substance": "PLLELFENLLEKLLDALQKKLK [Peptide 183]", "ACTIVITY (%) LCAT": 6},
      {"substance": "PVLELFLNLWERLLDALQKKLK [Peptide 155]", "ACTIVITY (%) LCAT": 38},
      {"substance": "AVLELFENLLERLLDALQKKLK [Peptide 153]", "ACTIVITY (%) LCAT": 49},
      {"substance": "PVLDEFRELLNEELEALKQKAK (PVLDEFRELLNEELEALKQKLK) [Peptide 103]", "ACTIVITY (%) LCAT": 1},
      {"substance": "PLLELFKELLQELLEALKQKLK [Peptide 23]", "ACTIVITY (%) LCAT": 54},
      {"substance": "PVLELFENLLERLFDALQKKLK [Peptide 147]", "ACTIVITY (%) LCAT": 76},
      {"substance": "PVLDLFREKLNEELEALKQKLK [Peptide 106]", "ACTIVITY (%) LCAT": 0},
      {"substance": "PVLELFENLLERLLDLLQKKLK [Peptide 165]", "ACTIVITY (%) LCAT": 23},
      {"substance": "PLLELLKELLEELKQKLK* (not fully specified (N-terminus, C-terminus); printed as PLLELLKELLEELKQKLK*) [Peptide 206]", "ACTIVITY (%) LCAT": 57},
      {"substance": "PVLELFLNLLERLLDAWQKKLK [Peptide 184]", "ACTIVITY (%) LCAT": 4},
      {"substance": "PVLDAFRELAEALAQLKK [Peptide 225]", "ACTIVITY (%) LCAT": 1},
      {"substance": "PVLDEFREKLNEELEXLKQKLK (PVLDEFREKLNEELE[Aib]LKQKLK; not fully specified (C-terminus)) [Peptide 120]", "ACTIVITY (%) LCAT": 0},
      {"substance": "PVLDFFRELLEELKQKLK* (not fully specified (N-terminus, C-terminus); printed as PVLDFFRELLEELKQKLK*) [Peptide 204]", "ACTIVITY (%) LCAT": 63},
      {"substance": "PVLELFEQLLEKLLDALQKKLK [Peptide 168]", "ACTIVITY (%) LCAT": 17},
      {"substance": "LVLDLFRELLNELLEALKQKLK [Peptide 59]", "ACTIVITY (%) LCAT": 17},
      {"substance": "PVLDEFREKLNEELEWLKQKLK [Peptide 122]", "ACTIVITY (%) LCAT": 0},
      {"substance": "PVLDEFREKLNEELEAXKQKLK (PVLDEFREKLNEELEA[Aib]KQKLK; not fully specified (C-terminus)) [Peptide 119]", "ACTIVITY (%) LCAT": 0},
      {"substance": "PVLDLFRELLNLXLEALKEKLK (PVLDLFRELLNL[Aib]LEALKEKLK; not fully specified (C-terminus)) [Peptide 102]", "ACTIVITY (%) LCAT": 2},
      {"substance": "PVLELWENLLERLLDALQKKLK [Peptide 176]", "ACTIVITY (%) LCAT": 11},
      {"substance": "PVLDLFERLLNELLEALQKKLK [Peptide 80]", "ACTIVITY (%) LCAT": 9},
      {"substance": "PVLDLFRELLNELLEALQKKLK [Peptide 24]", "ACTIVITY (%) LCAT": 53},
      {"substance": "~VLDEFREKLNEXLEALKQKLK (VLDEFREKLNE[Aib]LEALKQKLK; not fully specified (C-terminus); printed as ~VLDEFREKLNEXLEALKQKLK) [Peptide 65]", "ACTIVITY (%) LCAT": 15},
      {"substance": "PVLDLFRELLNEELEALKQKLK [Peptide 98]", "ACTIVITY (%) LCAT": 2},
      {"substance": "PVLDKFRELLNEXLEALKQKLK (PVLDKFRELLNE[Aib]LEALKQKLK) [Peptide 88]", "ACTIVITY (%) LCAT": 7},
      {"substance": "PVLEFFENLLERLLDALQKKLK [Peptide 157]", "ACTIVITY (%) LCAT": 30},
      {"substance": "PVLELFENGLERLLDALQKKLK [Peptide 167]", "ACTIVITY (%) LCAT": 18},
      {"substance": "GVLDLFRELLNEGLEALKQKLK [Peptide 13]", "ACTIVITY (%) LCAT": 67},
      {"substance": "PVLDAFRELGEALLQLKK [Peptide 226]", "ACTIVITY (%) LCAT": 1}
    ]}
  ]
}
